From publication PMC13142116, “Development and structure-guided characterization of a novel ACE2-binding macrocyclic peptide” (Journal of Structural Biology: X, 2026)
Positions of bridges follow the written chain, without caps; N, C: chain ends. Non-standard residues stand in square brackets, D forms with d. Residues, ends and D or L forms follow the SMILES beside them. *: point of attachment. DOTA = O=C(O)CN1CCN(CC(=O)O)CCN(CC(=O)*)CCN(CC(=O)O)CC1

Tests used:
[1] = format: physicochemical
Method: The distribution coefficient (logD value) of [^67Ga]Ga-DOTA-WJL-63 was determined using a shake-flask method as previously reported for DX600 radiopeptides ([Beyer et al., 2023]). The distribution coefficients were indicated as the average of n = 3 independent measurements ± standard deviation (SD), each performed with five replicates.

[2] = in vitro; format: in vitro ADME; conditions: mouse, plasma
Method: Additionally, the integrity of [^67Ga]Ga-DOTA-WJL-63 (20 MBq/nmol) in mouse and human blood plasma (Rockland Immunochemicals, Inc. PA, USA and Blood donation SRK Aargau-Solothurn, Switzerland) was determined using thin layer chromatography (TLC). Reversed phase C-18 plates (TLC Silica gel 60 RP-18; Merck) were used as the stationary phase and a mixture of citrate buffer (pH 5.5; 0.1 M) and acetonitrile (7:3; v/v) as the mobile phase. Under these conditions, uncoordinated gallium-67 migrated with the front while the radiopeptide and potential larger fragments migrated to the center of the plate. […] The quantification of the signals was carried out using the OptiQuant software (version 5.0, Bright Instrument Co Ltd., PerkinElmer). The obtained chromatograms were analyzed by determination of the peak area of the radiolabeled peptide, the released gallium-67 as well as degradation products of unknown structure. The quantity of the intact product was expressed as the percentage of the sum of integrated peak areas of the entire chromatogram and set in relation to the value determined at the respective timepoints of the radiopeptide diluted in saline which was set as 100% to correct for TLC artefacts. The results were then expressed as average ± SD from n = 3 independent experiments.

Question: For `CC[C@H](C)[C@@H]1NC(=O)[C@H](CCC(N)=O)NC(=O)[C@H]([C@@H](C)O)NC(=O)[C@H](CO)NC(=O)[C@@H](Cc2ccc(O)cc2)NC(=O)CSC[C@@H](C(=O)NCC(=O)N[C@@H](CO)C(=O)NCC(=O)N[C@@H](CO)C(=O)NCC(=O)N[C@@H](CO)C(=O)N[C@@H](CCCCNC(=O)CN2CCN(CC(=O)O)CCN(CC(=O)O)CCN(CC(=O)O)CC2)C(N)=O)NC(=O)CNC(=O)[C@H](CCCNC(=N)N)NC(=O)[C@H](CO)NC(=O)[C@H](CC(=O)O)NC(=O)[C@H](CCCNC(=N)N)NC(=O)[C@H]([C@@H](C)O)NC(=O)[C@H](Cc2ccccc2)NC(=O)CNC(=O)[C@H](CCCNC(=N)N)NC(=O)[C@H](CO)NC1=O` [[^67Ga]Ga-DOTA-WJL-63, metal not drawn] ({CH2CO}-[dY]STQISRGFTRDSRGCGSGSGSK(DOTA)-NH2; thioether N-16), which logD value [1] is on record?
Answer: Its logD value is “− 4.4 ± 0.1”.

Question: And the remaining at 1 h, 10 MBq/200 µL [2]?
Answer: The remaining at 1 h, 10 MBq/200 µL was 91%.

Question: What about the remaining at 3 h, 10 MBq/200 µL [2] of the same compound?
Answer: The remaining at 3 h, 10 MBq/200 µL was 69%.
